Laboratory results: CN113185610A (UNIV NORTHWEST A&F, dated 2021)

Target: T1, 金黄色葡萄球菌肠毒素B (Staphylococcus aureus, UniProt P01552 28-266)
T1 construct: Coated at 500 ng/mL
T1 sequence: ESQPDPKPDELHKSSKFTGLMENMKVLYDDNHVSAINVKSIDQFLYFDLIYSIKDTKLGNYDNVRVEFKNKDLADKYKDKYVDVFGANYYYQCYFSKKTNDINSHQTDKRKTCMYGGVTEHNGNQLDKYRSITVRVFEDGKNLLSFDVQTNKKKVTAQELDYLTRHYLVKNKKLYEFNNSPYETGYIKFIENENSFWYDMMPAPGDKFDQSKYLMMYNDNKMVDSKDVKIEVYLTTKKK
Assay: ELISA, coated antigen, HRP-conjugated nanobody, OD450

B1: 抗金黄色葡萄球菌肠毒素A纳米抗体Anti-SEA-Nb A150 (VHH)
VHH: ESGGGLVQAGGSLRLSCTTSGFTFDDYAMGWFRQAPGKEREGVSCINWNGANAYYADSVKGRFTISRDNNKNTLYLQMNSLKPEDTALYYCAAGRMPILDDHGYVYWGQGTQVTVS
**Q.** Does B1 bind?
**A.** no binding (tested: 500ng/mL (coated))
